Experimental data reported in US20240218065A1 (SHENGHE CHINA BIOPHARMACEUTICAL, published 2024).
Substitutions are numbered along the chain they refer to. Like-named read-outs stand apart in the source and are kept apart here.

T1: Human-NKP30-His (Kactus, cat: NKP-HM430) (human, UniProt O14931 19-138, limits assumed)
T1 construct: also called NKP30 protein; NKP30-his protein; not shown: His tag
T1 sequence (looked up): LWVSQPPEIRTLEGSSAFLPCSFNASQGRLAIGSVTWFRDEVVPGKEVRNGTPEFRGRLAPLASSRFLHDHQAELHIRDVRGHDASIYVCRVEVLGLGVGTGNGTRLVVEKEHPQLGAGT

B1: GPC-3 and CD3 bispecial antibody (ERY974) (bispecific antibody, human IgG4 S228P, kappa, N297A)
chain 1: QVQLVQSGAEVKKPGASVTVSCKASGYTFTDYEMHWIRQPPGEGLEWIGAIDGPTPDTAYSEKFKGRVTLTADKSTSTAYMELSSLTSEDTAVYYCTRFYSYTYWGQGTLVTVSSASTKGPSVFPLAPCSRSTSESTAALGCLVKDYFPEPVTVSWNSGALTSGVHTFPAVLQSSGLYSLSSVVTVPSSSLGTQTYTCNVDHKPSNTKVDKRVESKYGPPCPPCPAPEFRGGPKVFLFPPKPKDTLMISRTPEVTCVVVDVSQEDPEVQFNWYVDGVEVHNAKTKPREEQFASTYRVVSVLTVLHQDWLNGKEYKCKVSNKGLPSSIEKTISKAKGQPREPQVYTLPPSQEEMTKNQVSLTCLVKGFYPSDIAVEWESNGQPENNYKTTPPVLDSDGSFFLYSKLTVDKSRWQEGNVFSCSVMHEALHNHYTQESLSLSP
chain 2: QVQLVESGGGVVQPGGSLRLSCAASGFTFSNAWMHWVRQAPGKGLEWVAQIKDKSQNYATYVAESVKGRFTISRADSKNSIYLQMNSLKTEDTAVYYCRYVHYAAGYGVDIWGQGTTVTVSSASTKGPSVFPLAPCSRSTSESTAALGCLVKDYFPEPVTVSWNSGALTSGVHTFPAVLQSSGLYSLSSVVTVPSSSLGTKTYTCNVDHKPSNTKVDKRVESKYGPPCPPCPAPEFRGGPKVFLFPPKPKDTLMISRTPEVTCVVVDVSQEDPEVQFNWYVDGVEVHNAKTKPREEQFASTYRVVSSLTVLHQDWLNGKEYKCKVSNKGLPSSIEKTISKAKGQPREPQVYTLPPSQKEMTKNQVSLTCLVKGFYPSDIAVEWESNGQPENNYKTTPPVLDSSGSFFLYSKLTVDKSRWQEGNVFSCSVMHEALHNHYTQKSLSLSP
chain 3: DIVMTQSPLSLPVTPGEPASISCRSSQPLVHSNRNTYLHWYQQKPGQAPRLLIYKVSNRFSGVPDRFSGSGSGTDFTLKISRVEAEDVGVYYCGQGTQVPYTFGQGTKLEIKRTVAAPSVFIFPPSDEQLKSGTASVVCLLNNFYPREAKVQWKVDNALQSGNSQESVTEQDSKDSTYSLSSTLTLSKADYEKHKVYACEVTHQGLSSPVTKSFNRGEC
notes: also called anti-CD3 epsilon and anti-GPC3 bispecific antibody
B2: GN15-G (bispecific antibody, human IgG1, kappa)
light 1: QVQLVQSGAEVKKPGASVKVSCKASGYTFTDYEMHWVRQAPGQGLEWMGALDPKTGDTAYSQKFKGRVTLTADKSTSTAYMELSSLTSEDTAVYYCTRFYSYTYWGQGTLVTVSSRTVAAPSVFIFPPSDEQLKSGTASVVCLLNNFYPREAKVQWKVDNALQSGNSQESVTEQDSKDSTYSLSSTLTLSKADYEKHKVYACEVTHQGLSSPVTKSFNRGECGGGGSGGGGSGGGGSGGGGSEVQLVESGGGLVQPGGSLRLSCAASGITFSRSVMGWFRQAPGKLRELVAGITSDDNTDYADSVKGRFTISRDNSKNTLYLQMNSLRAEDTAVYYCNILPDSRLGWGQGTLVTVSS
heavy 1: not shown
heavy 2: QVQLVQSGAEVKKPGASVKVSCKASGYTFTDYEMHWVRQAPGQGLEWMGALDPKTGDTAYSQKFKGRVTLTADKSTSTAYMELSSLTSEDTAVYYCTRFYSYTYWGQGTLVTVSSASTKGPSVFPLAPSSKSTSGGTAALGCLVKDYFPEPVTVSWNSGALTSGVHTFPAVLQSSGLYSLSSVVTVPSSSLGTQTYICNVNHKPSNTKVDKKVEPKSCDKTHTCPPCPGGGGSGGGGSPALLLLLLLRPPATRGITCPPPMSVEHADIWVKSYSLYSRERYICNSGFKRKAGTSSLTECVLNKATNVAHWTTPSLKCIRDPALVHQRPAPPSTVTTAGVTPQPESLSPSGKEGGGGSGGGGSAPELLGGPSVFLFPPKPKDTLMISRTPEVTCVVVDVSHEDPEVKFNWYVDGVEVHNAKTKPREEQYNSTYRVVSVLTVLHQDWLNGKEYKCKVSNKALPAPIEKTISKAKGQPREPQVYTLPPSRDELTKNQVSLTCLVKGFYPSDIAVEWESNGQPENNYKTTPPVLDSDGSFFLASKLTVDKSRWQQGNVFSCSVMHEALHNHYTQKSLSLSPGK
light 2: B1 chain 3 with I2V, P28S, Q42L, A48S, R50Q, G94S, G96N, Q98H, Y101P
notes: Trifunctional antibody against GPC-3 and NKP30 with IL-15 and IL-15Rα sushi between CH1 and CH2; also called constructed antibody GN15-G; multifunctional antibody
B3: GN15-F (bispecific antibody, human IgG1, kappa)
light: B1 chain 3 with I2V, P28S, Q42L, A48S, R50Q, G94S, G96N, Q98H, Y101P
heavy 1: not shown
heavy 2: B2 heavy 2
notes: Trifunctional antibody against GPC-3 and NKP30 with IL-15 and IL-15Rα sushi between CH1 and CH2; also called constructed antibody GN15-F; multifunctional antibody

How the values were obtained:
Human-GPC3-His [1] = biological target: T2, Human-GPC3-His (human, UniProt P51654 25-559, limits assumed); assay: ELISA: Human-GPC3-His coated at 0.5 µg/mL, antibody titrated 3-fold from 10 µg/mL, HRP goat anti-human IgG-Fc, OD450-OD570
T2 construct: Coated on the ELISA plate; also called GPC-3 protein; GPC3 protein; not shown: His tag
T2 sequence (P51654 25-559 limits assumed): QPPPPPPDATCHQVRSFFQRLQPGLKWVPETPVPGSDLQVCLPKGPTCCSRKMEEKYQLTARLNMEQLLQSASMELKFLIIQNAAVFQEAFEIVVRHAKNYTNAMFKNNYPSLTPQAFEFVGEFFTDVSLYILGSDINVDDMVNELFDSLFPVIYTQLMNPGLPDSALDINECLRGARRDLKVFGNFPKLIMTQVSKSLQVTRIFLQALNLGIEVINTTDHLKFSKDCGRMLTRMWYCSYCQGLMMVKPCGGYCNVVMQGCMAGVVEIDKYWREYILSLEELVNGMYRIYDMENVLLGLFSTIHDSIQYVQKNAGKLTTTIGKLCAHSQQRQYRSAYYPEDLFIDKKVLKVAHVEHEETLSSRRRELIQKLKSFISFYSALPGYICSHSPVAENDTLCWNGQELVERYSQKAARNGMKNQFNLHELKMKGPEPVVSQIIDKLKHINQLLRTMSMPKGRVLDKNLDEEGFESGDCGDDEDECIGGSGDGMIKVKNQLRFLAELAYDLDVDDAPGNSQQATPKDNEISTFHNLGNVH
Description: (§1) Human-GPC3-His was diluted to 0.5 μg/mL with PBS buffer at pH 7.4, added into the 96-well ELISA plate at 100 μL per well, coated overnight at 4° C., and blocked with 1% BSA blocking solution for 1 hour. The plate was washed 3 times with PBST, and the constructed antibody was diluted to 10 μg/mL with 0.5% BSA sample diluent as the starting concentration, and then diluted by 3-fold gradient (11 gradients in total) and incubated at 37° C. for 1 h at 100 μL per well. The plate was washed 3 times with PBST, and then HRP-labelled goat anti-human IgG-Fc was diluted with the sample diluent at 1:20000. 100 μL was added into each well, and incubated at room temperature for 1 hour. A negative control (blank well and IgG1 isotype control) and a positive control were set, and the positive control was a GPC-3 and CD3 bispecial antibody from the literature Hs, A, et al. “Engineering a bispecific antibody with a common light chain: Identification and optimization of an anti-CD3 epsilon and anti-GPC3 bispecific antibody, ERY974.” Methods 154 (2019): 10-20. (The GPC-3 and CD3 bispecial antibody sequence consists of SEQ ID No. 22, SEQ ID No. 23, and SEQ ID No. 24). The plate was washed 4 times with PBST, and 100 μL of TMB substrate was added into each well, and incubated at room temperature without light for 10 minutes. 100 μL of 1 M HCl solution was added into each well to terminate the color development reaction. The absorbance value of each well in the 96-well plate was determined by selecting the wavelength of 450 nm and the reference wavelength of 570 nm on a multifunctional enzyme marker, and the absorbance value (OD)=OD₄₅₀ₙₘ−OD₅₇₀ₙₘ. The logarithm of the concentration of the constructed antibody was taken as the abscissa, and the measured absorbance value of each well was taken as the ordinate, and the Sigmoidaldose-response (Variable Slope) method (GraphPad Prism software, GraphPad Software, San Diego, California) was selected for nonlinear regression to obtain the binding curve of the target antibody to the GPC-3 protein.

Human-GPC3-His [2] = biological target: T2, Human-GPC3-His; assay: as above; remark: listed apart in the source
Description: as §1

Human-GPC3-His [3] = biological target: T2, Human-GPC3-His; assay: as above; remark: listed apart in the source
Description: as §1

[4] = biological target: T1, Human-NKP30-His (Kactus, cat: NKP-HM430); assay: ELISA: Human-NKP30-His coated, antibody titrated 3-fold from 10 µg/mL, HRP goat anti-human IgG-Fc, OD450-OD570
Description: Human-NKP30-His (Kactus, cat: NKP-HM430) was diluted to […] with PBS buffer at pH 7.4, added into the 96-well ELISA plate at 100 μL per well, coated overnight at 4° C., and blocked with 1% BSA blocking solution for 1 hour. The plate was washed 3 times with PBST, and the constructed antibodies were diluted to 10 μg/mL with 0.5% BSA sample diluent as the starting concentration, and then diluted by 3-fold gradient (11 gradients in total). A negative control (blank well and IgG1 isotype control) and a positive control were set, and the positive control was a NKP30 humanized antibody (sequence shown in SEQ ID No. 28), and incubated at 37° C. for 1 h at 100 μL per well. The plate was washed 3 times with PBST, and then HRP-labelled goat anti-human IgG-Fc was diluted with the sample diluent at 1:20000. 100 μL was added into each well, and incubated at room temperature for 1 hour. The plate was washed 4 times with PBST, and 100 μL of TMB substrate was added into each well, and incubated at room temperature without light for 10 minutes. 100 μL of 1 M HCl solution was added into each well to terminate the color development reaction. The absorbance value of each well in the 96-well plate was determined by selecting the wavelength of 450 nm and the reference wavelength of 570 nm on a multifunctional enzyme marker, and the absorbance value (OD)=OD₄₅₀ₙₘ−OD₅₇₀ₙₘ. The logarithm of the concentration of the constructed antibody was taken as the abscissa, and the measured absorbance value of each well was taken as the ordinate, and the Sigmoidaldose-response (Variable Slope) method (GraphPad Prism software, GraphPad Software, San Diego, California) was selected for nonlinear regression to obtain the binding curve of the target antibody to NKP30.

Row | EC50 (read off the curve) (Human-GPC3-His [1]) [µg/mL] | EC50 (read off the curve) (Human-GPC3-His [2]) [µg/mL] | EC50 (read off the curve) (Human-GPC3-His [3]) [µg/mL] | EC50 (read off the curve) [4] [µg/mL] | Binder
1 | ~0.03 | ~0.03 | ~0.01 |  | B1
2 |  |  | ~0.01 | ~0.03 | B2
3 |  | ~0.02 |  | ~0.03 | B3
